The values below come from patent US20250191685.

In this data set the test system is KLF6 RTF CDKN1C #200, 8 phosphate-contact R to Q 8 phosphate-contacting Arg to Gln (Homo sapiens). Description: cell_activity. The conditions noted are these: on-target activity reduced by only 12%; only CDKN1C upregulated in RNA-seq.

Substance CDKN1C promoter site #200 showed a binding signal (% of unmodified) of 88.
